The values below come from patent US20060058189A1.

The test addresses PpFtsZ2-1-CFP fusion protein (Physcomitrella patens). As to the kind of experiment: FRET by acceptor photobleaching, confocal microscopy, cotransfected Physcomitrella protoplasts (FtsZ2-1-CFP donor, FtsZ1-1-YFP acceptor).

As for PpFtsZ1-1-YFP fusion protein, the FRET efficiency amounted to 36.5%.
